Data taken from the supplement of paper PMC9112550, “Optimization of the antimicrobial peptide Bac7 by deep mutational scanning” (BMC Biology, 2022).

System: Escherichia coli TOP10
Assay: shrunken log2 fold change of peptide-encoding DNA abundance (4.5 h post-induction vs induction); higher = less antimicrobial activity (less host growth inhibition)
Details: time post-induction: 4.5 h; library: site-saturation at positions 5, 18, 19, 20
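Also: peptides expressed intracellularly from a pBAD plasmid library in pooled LB shake-flask culture, induced with 0.3% L-arabinose, DNA abundance read by NGS, three biological replicates, DESeq2 with apeglm shrinkage.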

Row | Sequence | shrunken log2 fold change
1 | RRIRWRPPRLPRPRPRPASFPRP | -0.0603
2 | RRIRWRPPRLPRPRPRPAVKPRP | -0.197
3 | RRIRWRPPRLPRPRPRPAWHPRP | 0.162
4 | RRIRWRPPRLPRPRPRPAWQPRP | 0.427
5 | RRIRWRPPRLPRPRPRPAWVPRP | 0.378
6 | RRIRWRPPRLPRPRPRPCAAPRP | 1.32
7 | RRIRWRPPRLPRPRPRPCAQPRP | 0.162
8 | RRIRWRPPRLPRPRPRPCDPPRP | 0.0863
9 | RRIRWRPPRLPRPRPRPCFVPRP | -0.144
10 | RRIRWRPPRLPRPRPRPCFWPRP | 0.213
11 | RRIRWRPPRLPRPRPRPCGAPRP | 0.525
12 | RRIRWRPPRLPRPRPRPCGHPRP | 0.108
13 | RRIRWRPPRLPRPRPRPCGYPRP | 0.14
14 | RRIRWRPPRLPRPRPRPCHVPRP | -0.437
15 | RRIRWRPPRLPRPRPRPCIHPRP | -0.0458
16 | RRIRWRPPRLPRPRPRPCLVPRP | 0.144
17 | RRIRWRPPRLPRPRPRPCMHPRP | -0.0533
18 | RRIRWRPPRLPRPRPRPCMRPRP | 0.506
19 | RRIRWRPPRLPRPRPRPCMVPRP | -0.155
20 | RRIRWRPPRLPRPRPRPCPIPRP | -0.204
21 | RRIRWRPPRLPRPRPRPCQIPRP | -0.0592
22 | RRIRWRPPRLPRPRPRPCRHPRP | 0.0955
23 | RRIRWRPPRLPRPRPRPCRKPRP | -0.0352
24 | RRIRWRPPRLPRPRPRPCRLPRP | 0.0377
25 | RRIRWRPPRLPRPRPRPCRVPRP | 0.103

Row | Sequence | shrunken log2 fold change
26 | RRIRWRPPRLPRPRPRPCSGPRP | -0.0411
27 | RRIRWRPPRLPRPRPRPCTHPRP | 0.0298
28 | RRIRWRPPRLPRPRPRPCTNPRP | -0.0757
29 | RRIRWRPPRLPRPRPRPCTQPRP | -0.177
30 | RRIRWRPPRLPRPRPRPCTYPRP | -0.473
31 | RRIRWRPPRLPRPRPRPCVFPRP | 0.309
32 | RRIRWRPPRLPRPRPRPCVMPRP | 0.0583
33 | RRIRWRPPRLPRPRPRPCVQPRP | 2.8
34 | RRIRWRPPRLPRPRPRPCVYPRP | -0.00208
35 | RRIRWRPPRLPRPRPRPCWVPRP | -0.116
36 | RRIRWRPPRLPRPRPRPCYDPRP | -0.00133
37 | RRIRWRPPRLPRPRPRPCYLPRP | -0.33
38 | RRIRWRPPRLPRPRPRPDAGPRP | 0.485
39 | RRIRWRPPRLPRPRPRPDAQPRP | 1.48
40 | RRIRWRPPRLPRPRPRPDDAPRP | 0.368
41 | RRIRWRPPRLPRPRPRPDFGPRP | -0.0549
42 | RRIRWRPPRLPRPRPRPDFNPRP | -0.0747
43 | RRIRWRPPRLPRPRPRPDGWPRP | 1.12
44 | RRIRWRPPRLPRPRPRPDIQPRP | 0.27
45 | RRIRWRPPRLPRPRPRPDKGPRP | 0.0389
46 | RRIRWRPPRLPRPRPRPDKKPRP | -0.0507
47 | RRIRWRPPRLPRPRPRPDKMPRP | -0.0535
48 | RRIRWRPPRLPRPRPRPDKYPRP | -0.126
49 | RRIRWRPPRLPRPRPRPDLCPRP | 0.777
50 | RRIRWRPPRLPRPRPRPDLDPRP | 0.311

Row | Sequence | shrunken log2 fold change
51 | RRIRWRPPRLPRPRPRPDMTPRP | 0.216
52 | RRIRWRPPRLPRPRPRPDPPPRP | 0.575
53 | RRIRWRPPRLPRPRPRPDQCPRP | 0.25
54 | RRIRWRPPRLPRPRPRPDQIPRP | 0.134
55 | RRIRWRPPRLPRPRPRPDQMPRP | 0.128
56 | RRIRWRPPRLPRPRPRPDRFPRP | 0.0986
57 | RRIRWRPPRLPRPRPRPDSAPRP | 0.139
58 | RRIRWRPPRLPRPRPRPDSGPRP | -0.0735
59 | RRIRWRPPRLPRPRPRPDTWPRP | 0.0829
60 | RRIRWRPPRLPRPRPRPDVEPRP | 0.182
61 | RRIRWRPPRLPRPRPRPDWFPRP | 0.147
62 | RRIRWRPPRLPRPRPRPDWIPRP | -0.0204
63 | RRIRWRPPRLPRPRPRPDYAPRP | -0.0174
64 | RRIRWRPPRLPRPRPRPDYGPRP | -0.202
65 | RRIRWRPPRLPRPRPRPEAHPRP | 0.219
66 | RRIRWRPPRLPRPRPRPECDPRP | 1.93
67 | RRIRWRPPRLPRPRPRPECEPRP | 0.912
68 | RRIRWRPPRLPRPRPRPEDNPRP | 0.547
69 | RRIRWRPPRLPRPRPRPEDYPRP | -0.00903
70 | RRIRWRPPRLPRPRPRPEEGPRP | -0.00968
71 | RRIRWRPPRLPRPRPRPEFAPRP | 1.02
72 | RRIRWRPPRLPRPRPRPEGFPRP | 0.192
73 | RRIRWRPPRLPRPRPRPEHCPRP | 0.177
74 | RRIRWRPPRLPRPRPRPEHEPRP | 0.623
75 | RRIRWRPPRLPRPRPRPEHFPRP | 0.00426

Row | Sequence | shrunken log2 fold change
76 | RRIRWRPPRLPRPRPRPEHMPRP | -0.122
77 | RRIRWRPPRLPRPRPRPEIQPRP | 0.685
78 | RRIRWRPPRLPRPRPRPELIPRP | 1.56
79 | RRIRWRPPRLPRPRPRPELKPRP | 0.276
80 | RRIRWRPPRLPRPRPRPEMSPRP | -0.0114
81 | RRIRWRPPRLPRPRPRPENCPRP | 0.138
82 | RRIRWRPPRLPRPRPRPEPRPRP | 0.886
83 | RRIRWRPPRLPRPRPRPEQHPRP | 0.339
84 | RRIRWRPPRLPRPRPRPEQTPRP | -0.0026
85 | RRIRWRPPRLPRPRPRPERIPRP | 0.0766
86 | RRIRWRPPRLPRPRPRPETNPRP | 0.187
87 | RRIRWRPPRLPRPRPRPEWFPRP | 0.395
88 | RRIRWRPPRLPRPRPRPFAHPRP | -0.0296
89 | RRIRWRPPRLPRPRPRPFAPPRP | 0.505
90 | RRIRWRPPRLPRPRPRPFCGPRP | 0.437
91 | RRIRWRPPRLPRPRPRPFDTPRP | -0.113
92 | RRIRWRPPRLPRPRPRPFEGPRP | -0.0062
93 | RRIRWRPPRLPRPRPRPFFCPRP | 0.104
94 | RRIRWRPPRLPRPRPRPFFEPRP | -0.0187
95 | RRIRWRPPRLPRPRPRPFFFPRP | 0.253
96 | RRIRWRPPRLPRPRPRPFFYPRP | 0.0746
97 | RRIRWRPPRLPRPRPRPFHFPRP | -0.451
98 | RRIRWRPPRLPRPRPRPFHKPRP | -0.28
99 | RRIRWRPPRLPRPRPRPFHYPRP | -2.18
100 | RRIRWRPPRLPRPRPRPFLMPRP | -0.115

Row | Sequence | shrunken log2 fold change
101 | RRIRWRPPRLPRPRPRPFNGPRP | -0.0132
102 | RRIRWRPPRLPRPRPRPFPSPRP | -0.1
103 | RRIRWRPPRLPRPRPRPFPVPRP | -0.0948
104 | RRIRWRPPRLPRPRPRPFQEPRP | -0.0827
105 | RRIRWRPPRLPRPRPRPFRDPRP | -0.196
106 | RRIRWRPPRLPRPRPRPFRWPRP | 0.0815
107 | RRIRWRPPRLPRPRPRPFTNPRP | 0.115
108 | RRIRWRPPRLPRPRPRPFVGPRP | -0.166
109 | RRIRWRPPRLPRPRPRPFYCPRP | -0.151
110 | RRIRWRPPRLPRPRPRPFYEPRP | -0.579
111 | RRIRWRPPRLPRPRPRPFYMPRP | -0.297
112 | RRIRWRPPRLPRPRPRPFYYPRP | -0.138
113 | RRIRWRPPRLPRPRPRPGAEPRP | 1.17
114 | RRIRWRPPRLPRPRPRPGASPRP | 0.793
115 | RRIRWRPPRLPRPRPRPGGIPRP | 0.22
116 | RRIRWRPPRLPRPRPRPGGKPRP | 0.227
117 | RRIRWRPPRLPRPRPRPGKEPRP | -0.0139
118 | RRIRWRPPRLPRPRPRPGMIPRP | -0.0827
119 | RRIRWRPPRLPRPRPRPGNCPRP | -0.0763
120 | RRIRWRPPRLPRPRPRPGNHPRP | -0.163
121 | RRIRWRPPRLPRPRPRPGQTPRP | -0.0122
122 | RRIRWRPPRLPRPRPRPGRPPRP | 0.42
123 | RRIRWRPPRLPRPRPRPGRVPRP | 0.37
124 | RRIRWRPPRLPRPRPRPGTQPRP | 0.216
125 | RRIRWRPPRLPRPRPRPGVGPRP | 1.27

Row | Sequence | shrunken log2 fold change
126 | RRIRWRPPRLPRPRPRPGVTPRP | 0.586
127 | RRIRWRPPRLPRPRPRPGVVPRP | 0.576
128 | RRIRWRPPRLPRPRPRPGYAPRP | 0.38
129 | RRIRWRPPRLPRPRPRPGYGPRP | -0.0305
130 | RRIRWRPPRLPRPRPRPGYMPRP | -0.288
131 | RRIRWRPPRLPRPRPRPHDDPRP | 0.0487
132 | RRIRWRPPRLPRPRPRPHDTPRP | 0.0511
133 | RRIRWRPPRLPRPRPRPHEQPRP | 0.718
134 | RRIRWRPPRLPRPRPRPHEVPRP | 0.169
135 | RRIRWRPPRLPRPRPRPHFHPRP | -0.596
136 | RRIRWRPPRLPRPRPRPHFNPRP | -0.333
137 | RRIRWRPPRLPRPRPRPHGFPRP | 0.407
138 | RRIRWRPPRLPRPRPRPHGHPRP | -0.0213
139 | RRIRWRPPRLPRPRPRPHLSPRP | -0.154
140 | RRIRWRPPRLPRPRPRPHNPPRP | -0.115
141 | RRIRWRPPRLPRPRPRPHPFPRP | -0.42
142 | RRIRWRPPRLPRPRPRPHRSPRP | -0.243
143 | RRIRWRPPRLPRPRPRPHSGPRP | 0.00842
144 | RRIRWRPPRLPRPRPRPHVEPRP | -0.042
145 | RRIRWRPPRLPRPRPRPHVWPRP | 0.126
146 | RRIRWRPPRLPRPRPRPHWWPRP | 0.629
147 | RRIRWRPPRLPRPRPRPHWYPRP | 2.17
148 | RRIRWRPPRLPRPRPRPICCPRP | 0.149
149 | RRIRWRPPRLPRPRPRPICEPRP | 0.389
150 | RRIRWRPPRLPRPRPRPIDKPRP | -0.105
